Blank lines part the entries; values can stand above or below the molecule they belong to.
Tests used:
[1] = target: TSH receptor (full length human TSHR) coated on tubes (human) (UniProt P16473); assay: 125I-TSH binding to TSHR coated tubes, in HBD pool
[2] = target: TSH receptor (full length human TSHR) coated on tubes (human) (UniProt P16473); assay: 125I-TSH binding to TSHR coated tubes, in assay buffer
TSHR260 [3] = target: T1, TSHR260 (human, UniProt P16473 22-260); assay: ELISA on 14C4 F(ab')2 captured preparation; untreated TSHR260
T1 construct: Expressed in insect cells; coated on tubes or wells by way of a mouse TSHR MAb (14C4 F(ab')2 in the stability ELISA); also called TSHR fragment of amino acids 22-260

[4] = target: TSHR260-alkaline phosphatase (human); assay: ELISA on 14C4 F(ab')2 captured preparation; untreated TSHR260-AP
TSHR LRD C-CAP (human) [5] = target: TSHR LRD C-CAP (human) (UniProt P16473); assay: ELISA on 14C4 F(ab')2 captured preparation; untreated TSHR LRD C-CAP
TSHR260 [6] = target: T1, TSHR260; assay: ELISA on 14C4 F(ab')2 captured preparation; TSHR260 kept 24 hours at room temperature
TSHR260 [7] = target: T1, TSHR260; assay: ELISA on 14C4 F(ab')2 captured preparation; TSHR260 kept 48 hours at room temperature
[8] = target: TSHR260-alkaline phosphatase (human); assay: ELISA on 14C4 F(ab')2 captured preparation; TSHR260-AP kept 24 hours at room temperature
[9] = target: TSHR260-alkaline phosphatase (human); assay: ELISA on 14C4 F(ab')2 captured preparation; TSHR260-AP kept 48 hours at room temperature
[10] = target: full length human TSHR, detergent-solubilised, coated on tubes or ELISA plate wells (human) (UniProt P16473); assay: ELISA on 14C4 F(ab')2 captured preparation; preparation kept 24 hours at room temperature
[11] = target: full length human TSHR, detergent-solubilised, coated on tubes or ELISA plate wells (human) (UniProt P16473); assay: ELISA on 14C4 F(ab')2 captured preparation; preparation kept 48 hours at room temperature
TSHR LRD C-CAP (human) [12] = target: TSHR LRD C-CAP (human) (UniProt P16473); assay: ELISA on 14C4 F(ab')2 captured preparation; TSHR LRD C-CAP kept 24 hours at room temperature
TSHR LRD C-CAP (human) [13] = target: TSHR LRD C-CAP (human) (UniProt P16473); assay: ELISA on 14C4 F(ab')2 captured preparation; TSHR LRD C-CAP kept 48 hours at room temperature
[14] = target: full length human TSHR, detergent-solubilised, coated on tubes or ELISA plate wells (human) (UniProt P16473); assay: ELISA: TSHR preparation captured on 14C4 F(ab')2 coated wells, M22 Fab-peroxidase binding; preparation stored at -80 C (untreated)
[15] = target: TSH receptor (full length human TSHR) coated on tubes (human) (UniProt P16473); assay: 125I-TSH binding inhibition, TSHR coated tubes; 1 unit/L in serum
[16] = target: TSH receptor (full length human TSHR) coated on tubes (human) (UniProt P16473); assay: 125I-TSH binding inhibition, TSHR coated tubes; 2 units/L in serum
[17] = target: TSH receptor (full length human TSHR) coated on tubes (human) (UniProt P16473); assay: 125I-TSH binding inhibition, TSHR coated tubes; 4 units/L in serum
[18] = target: TSH receptor (full length human TSHR) coated on tubes (human) (UniProt P16473); assay: 125I-TSH binding inhibition, TSHR coated tubes; 8 units/L in serum
[19] = target: TSH receptor (full length human TSHR) coated on tubes (human) (UniProt P16473); assay: 125I-TSH binding inhibition, TSHR coated tubes; 40 units/L in serum
[20] = target: TSH receptor (full length human TSHR) coated on tubes (human) (UniProt P16473); assay: 125I-TSH binding inhibition, TSHR coated tubes; 0.5 units/L in serum
[21] = target: TSH receptor (full length human TSHR) coated on tubes (human) (UniProt P16473); assay: 125I-TSH binding inhibition, TSHR coated tubes; 0.25 units/L in serum
[22] = target: TSH receptor (full length human TSHR) coated on tubes (human) (UniProt P16473); assay: 125I-TSH binding inhibition, TSHR coated tubes; 0.125 units/L in serum
[23] = target: TSH receptor (full length human TSHR) coated on tubes (human) (UniProt P16473); assay: 125I-TSH binding inhibition, TSHR coated tubes; 1 unit/L in assay buffer
[24] = target: TSH receptor (full length human TSHR) coated on tubes (human) (UniProt P16473); assay: 125I-TSH binding inhibition, TSHR coated tubes; 2 units/L in assay buffer
[25] = target: TSH receptor (full length human TSHR) coated on tubes (human) (UniProt P16473); assay: 125I-TSH binding inhibition, TSHR coated tubes; 4 units/L in assay buffer
[26] = target: TSH receptor (full length human TSHR) coated on tubes (human) (UniProt P16473); assay: 125I-TSH binding inhibition, TSHR coated tubes; 8 units/L in assay buffer
[27] = target: TSH receptor (full length human TSHR) coated on tubes (human) (UniProt P16473); assay: 125I-TSH binding inhibition, TSHR coated tubes; 40 units/L in assay buffer
[28] = target: TSH receptor (full length human TSHR) coated on tubes (human) (UniProt P16473); assay: 125I-TSH binding inhibition, TSHR coated tubes; 0.5 units/L in assay buffer
[29] = target: TSH receptor (full length human TSHR) coated on tubes (human) (UniProt P16473); assay: 125I-TSH binding inhibition, TSHR coated tubes; 0.25 units/L in assay buffer
[30] = target: TSH receptor (full length human TSHR) coated on tubes (human) (UniProt P16473); assay: 125I-TSH binding inhibition, TSHR coated tubes; 0.125 units/L in assay buffer
[31] = target: human TSHR on transfected CHO cells (human, UniProt P16473 22-764); assay: cell-based or functional assay
TSHR260 [32] = target: T1, TSHR260; assay: Scatchard analysis, TSHR260 coated tubes (mean±SD, n=3)
[33] = target: T2, full length human TSHR, detergent-solubilised, coated on tubes or ELISA plate wells (human, UniProt P16473 22-764); assay: inhibition of 125I-TSH binding to TSHR coated tubes, dilutions in HBD sera
T2 construct: Full length receptor expressed in CHO cells, solubilised with detergent and held on the plastic by a mouse MAb to the C-terminus; The leader 1-21 is stated for the TSHR260 construct of the same receptor; also called TSH receptor; TSHR (full length)

[34] = target: T2, full length human TSHR, …; assay: inhibition of 125I-TSH binding to TSHR coated tubes, dilutions in assay buffer
Description: Binding inhibition assays were carried out using TSHR coated tubes as described in WO2004/050708A2. […] After aspiration, the tubes were washed and 100 μL of ¹²⁵I-labelled protein (5×10⁴ cpm) added and incubated for 1 hour at room temperature with shaking. The tubes were then aspirated, washed and counted in a gamma counter. Inhibition of labelled protein binding was calculated as 100×[1−(cpm bound in the presence of test material/cpm bound in the presence of control material)].

[35] = target: T2, full length human TSHR, …; assay: Scatchard analysis, 125I-labelled antibody on full length TSHR coated tubes (mean±SD, n=3)
[36] = target: T3, human TSH receptor, full length, detergent-solubilised, coated on tubes or ELISA plate wells (human, UniProt P16473 22-764); assay: TSHR binding affinity (summary table; Scatchard analysis, TSHR coated tubes)
T3 construct: Full length recombinant receptor expressed in CHO cells, solubilised and coated via a C-terminal antibody; also called wild type TSHR; full length TSHR

Molecule: M22 Fab-peroxidase conjugate
OD450 nm (TSHR260 [3]): 2.29 OD450 nm | OD450 nm [4]: 2.4 OD450 nm | OD450 nm (TSHR LRD C-CAP (human) [5]): 1.83 OD450 nm | OD450 nm (TSHR260 [6]): 1.84 OD450 nm | OD450 nm (TSHR260 [7]): 1.68 OD450 nm | OD450 nm [8]: 2.11 OD450 nm | OD450 nm [9]: 1.98 OD450 nm | OD450 nm [10]: 0.268 OD450 nm | OD450 nm [11]: 0.126 OD450 nm | OD450 nm (TSHR LRD C-CAP (human) [12]): 1.16 OD450 nm | OD450 nm (TSHR LRD C-CAP (human) [13]): 1.16 OD450 nm | OD450 nm [14]: 1.75 OD450 nm

Molecule: Thyroid Stimulating Autoantibody reference preparation NIBSC 90/672
Inhibition of binding (%) [15]: 15.5% | Inhibition of binding (%) [16]: 22.9% | Inhibition of binding (%) [17]: 49.2% | Inhibition of binding (%) [18]: 63.2% | Inhibition of binding (%) [19]: 90% | Inhibition of binding (%) [20]: 9.3% | Inhibition of binding (%) [21]: 3.5% | Inhibition of binding (%) [22]: 2.4% | Inhibition of binding (%) [23]: 14.1% | Inhibition of binding (%) [24]: 27.2% | Inhibition of binding (%) [25]: 53.3% | Inhibition of binding (%) [26]: 62.2% | Inhibition of binding (%) [27]: 90.9% | Inhibition of binding (%) [28]: 2.8% | Inhibition of binding (%) [29]: 0.9% | Inhibition of binding (%) [30]: 5.1%

B1: K1-18 IgG (antibody, V domains shown)
VH: EVQLVQSGAEVKKPGESLKISCKGSGYSFTNYWIGWVRQMPGKGLEWMGIIYPYDSDTRYSPSFEGQVTISADKSIRTAYLHWSSLKASDTAMYYCVRPRDGSYPYDAFDIWGQGTMVTVSS
VL: EIVLTQSPGTLSLSPGERATLSCRASQSVSNNYLAWYQQKPGQAPRLLIYGASSRATGIPDRFSGSGSGTDFTLTISRLEPEDFAVYYCQHCGSSLRAFGQGTKVEIKR
notes: Human IgG1 kappa purified from hetero-hybridoma supernatant; also called human MAb K1-18
potency of TSHR cyclic AMP stimulation, M22 against K1-18 [31]: ~1.5 fold | Ka (TSHR260 [32]): 5.9e+09 M⁻¹ | fold activity in inhibition of TSH binding against K1 donor serum IgG [33]: 6600 times | fold activity in inhibition of TSH binding against K1 donor serum IgG [34]: 4700 times | Ka [35]: 6.7e+09 M⁻¹

The remaining lines, values ahead:

% binding [1]: 12.9% | % binding [2]: 12.6%
Molecule: 125I-labelled TSH (ligand)

Ka [36]: 3.9e+10 M⁻¹
B2: K1-70 IgG (human monoclonal TSHR autoantibody with blocking activity) (antibody, V domains shown)
VH: EVQLVQSGAEVKKPGQSLKISCKASGYSLTDNWIGWVRQKPGKGLEWMGIIYPGDSDTRYSPSFQGQVTISADKSINTAYLQWSSLKASDTAIYYCVGLDWNYNPLRYWGPGTLVTVSS
VL: QSVLTQPPSVSAAPGQKVTISCSGSSSDIGSNYVSWYQQFPGTAPKLLIYDNNKRPSAIPDRFSGSKSGTSATLGITGLQTGDEADYYCGTWDSRLGIAVFGGGTQLTVLG
notes: IgG1 lambda purified from hetero-hybridoma supernatant
